This note sets out measurements from article PMC3084661.

What all share (assay): FRET or BRET
Assay [1] concerns the target S. oneidensis RNA polymerase core (α, β, β′, ω), assembled in vivo (Shewanella oneidensis MR-1) (UniProt Q8EK47).
Assay [2] has the same target. The source holds these as a separate data set.
For assay [3] the target is unchanged. This is another data set of the same source.

Read-outs that look alike come from different tables or passages of the source.

Regarding “Cy3B-labelled single-cysteine S. oneidensis σ^70 derivative N399C (from UniProt Q8EHE1 1-616) (natural protein)”, the values for the σ^70 retention half-life in assay [1], in assay [2] and in assay [3] were 1.33 h, 1.25 h and 0.717 h, respectively. Further, the initial σ^70 retention (%) in assay [2] was found to be 59%; in assay [3], 45%.
